Assay results as given in the Immune Epitope Database (IEDB).
Blank lines part the entries; values can stand above or below the sequence they belong to.

Tests used:
[1] = target: HLA-C*14:02; test: IEDB peptide-MHC binding, purified MHC/direct/fluorescence; filed as Kd, often an IC50 or EC50 that approximates it; ≥ and ≤ were set here for values at or beyond the usual limits of such assays
[2] = target: HLA-A*26:01; test: IEDB peptide-MHC binding, purified MHC/competitive/fluorescence; filed as Kd, often an IC50 or EC50 that approximates it; ≥ and ≤ were set here for values at or beyond the usual limits of such assays; conditions: source organism: Escherichia coli O139:H28 str. E24377A
[3] = target: HLA-A*02:01; test: IEDB peptide-MHC binding, purified MHC/competitive/fluorescence; ≥ and ≤ were set here for values at or beyond the usual limits of such assays
[4] = target: HLA-A*11:01; test: as above
[5] = target: HLA-A*03:01; test: as above
[6] = target: HLA-B*35:01; test: IEDB peptide-MHC binding, purified MHC/direct/fluorescence; filed as Kd, often an IC50 or EC50 that approximates it; ≥ and ≤ were set here for values at or beyond the usual limits of such assays
[7] = target: HLA-A*31:01; test: as above
[8] = target: HLA-A*01:01; test: as above
[9] = target: HLA-A*69:01; test: as above
[10] = target: HLA-A*26:01; test: as above
[11] = target: HLA-B*44:02; test: as above
[12] = target: HLA-B*58:01; test: as above
[13] = target: HLA-A*02:01; test: as above
[14] = target: HLA-B*08:01; test: as above
[15] = target: HLA-B*27:05; test: as above
[16] = target: HLA-B*40:01; test: as above
[17] = target: HLA-A*11:01; test: as above
[18] = target: HLA-A*03:01; test: as above
[19] = target: HLA-B*07:02; test: as above
[20] = target: HLA-B*15:01; test: as above
[21] = target: HLA-A*02:06; test: IEDB peptide-MHC binding, purified MHC/competitive/radioactivity; filed as Kd, often an IC50 or EC50 that approximates it; ≥ and ≤ were set here for values at or beyond the usual limits of such assays
[22] = target: HLA-A*02:17; test: as above
[23] = target: HLA-A*02:03; test: as above
[24] = target: HLA-A*02:01; test: as above
[25] = target: HLA-B*51:01; test: as above; conditions: source organism: Dengue virus 3 Martinique/1243/1999
[26] = target: HLA-A*26:01; test: as above; conditions: source organism: Dengue virus 3 Martinique/1243/1999
[27] = target: HLA-A*68:02; test: as above
[28] = target: HLA-A*24:02; test: IEDB peptide-MHC binding, purified MHC/competitive/fluorescence; ≥ and ≤ were set here for values at or beyond the usual limits of such assays; conditions: source organism: Zaire ebolavirus
[29] = target: HLA-B*15:03; test: IEDB peptide-MHC binding, purified MHC/competitive/radioactivity; filed as Kd, often an IC50 or EC50 that approximates it; ≥ and ≤ were set here for values at or beyond the usual limits of such assays; conditions: source organism: Vaccinia virus WR
[30] = target: HLA-A*32:01; test: as above; conditions: source organism: Vaccinia virus WR
[31] = target: HLA-B*08:01; test: as above; conditions: source organism: Vaccinia virus WR
[32] = target: HLA-A*30:01; test: as above; conditions: source organism: Vaccinia virus WR
[33] = target: HLA-B*15:01; test: as above; conditions: source organism: Vaccinia virus WR
[34] = target: HLA-A*24:03; test: IEDB peptide-MHC binding, purified MHC/direct/fluorescence; filed as Kd, often an IC50 or EC50 that approximates it; ≥ and ≤ were set here for values at or beyond the usual limits of such assays; conditions: source organism: Pseudomonas aeruginosa
[35] = target: HLA-A*02:02; test: IEDB peptide-MHC binding, purified MHC/competitive/radioactivity; filed as Kd, often an IC50 or EC50 that approximates it; ≥ and ≤ were set here for values at or beyond the usual limits of such assays; conditions: source organism: Vaccinia virus WR
[36] = target: HLA-A*02:12; test: IEDB peptide-MHC binding, purified MHC/competitive/fluorescence; filed as Kd, often an IC50 or EC50 that approximates it; ≥ and ≤ were set here for values at or beyond the usual limits of such assays; conditions: source organism: Cowpox virus
[37] = target: HLA-A*02:01; test: as above; conditions: source organism: Cowpox virus
[38] = source organism: Zaire ebolavirus
[39] = source organism: Vibrio vulnificus
[40] = source organism: Dengue virus 1 Brazil/97-11/1997
[41] = source organism: Dengue virus 1 Singapore/S275/1990
[42] = source organism: Dengue virus 3 Martinique/1243/1999
[43] = source organism: Dengue virus 3 China/80-2/1980
[44] = source organism: Vaccinia virus
[45] = source organism: Dengue virus 2 Jamaica/1409/1983
[46] = source organism: Pseudomonas aeruginosa
[47] = source organism: Vaccinia virus WR
[48] = source organism: Dengue virus 2 Peru/IQT2913/1996
[49] = source organism: Dengue virus 2 Thailand/NGS-C/1944
[50] = source organism: Giardia lamblia ATCC 50803

Kd ([1]; source organism: Escherichia coli O139:H28 str. E24377A): 1100 nM | Kd [2]: ≥ 20000 nM
Sequence: ACPDNLLRL

Sequence: ATAHGSTLA
IC50 [3, 38]: 54300 nM | IC50 [4, 38]: 43100 nM

Sequence: AVLYYHMMK
IC50 [3, 38]: ≥ 311000 nM | IC50 [4, 38]: 288 nM | IC50 [5, 38]: 1970 nM

Sequence: DFPIFNQRY
Kd [6, 39]: 118 nM | Kd [7, 39]: ≥ 20000 nM | Kd [8, 39]: ≥ 20000 nM | Kd [9, 39]: ≥ 20000 nM | Kd [10, 39]: 3830 nM | Kd [11, 39]: ≥ 20000 nM | Kd [12, 39]: ≥ 20000 nM | Kd [13, 39]: ≥ 20000 nM | Kd [14, 39]: ≥ 20000 nM | Kd [15, 39]: ≥ 20000 nM | Kd [16, 39]: ≥ 20000 nM | Kd [17, 39]: ≥ 20000 nM | Kd [18, 39]: ≥ 20000 nM | Kd [19, 39]: ≥ 20000 nM | Kd [20, 39]: ≥ 20000 nM

Sequence: FMTATPPGSV
Kd [21, 40]: 671 nM | Kd [22, 41]: 3100 nM | Kd [23, 40]: 1.67 nM | Kd [24, 41]: 72.8 nM

Sequence: FTMGVLCLAI
Kd [21, 42]: 5.39 nM | Kd [25]: 8620 nM | Kd [26]: 1650 nM | Kd [22, 43]: 132 nM | Kd [27, 42]: 11.1 nM | Kd [23, 42]: 9.25 nM

Sequence: GTSNRTPTV
IC50 [3, 38]: 1300 nM | IC50 [4, 38]: ≥ 128000 nM | IC50 [5, 38]: 57200 nM

Sequence: IVLEFFMMV
Kd [21, 42]: 31.7 nM | Kd [22, 43]: 131 nM | Kd [27, 42]: 558 nM

Sequence: IYIEGLMHN
IC50 [28]: 2630 nM | IC50 [4, 38]: 36100 nM | IC50 [5, 38]: ≥ 211000 nM

IC50 ([4]; source organism: Homo sapiens): 32 nM | IC50 ([5]; source organism: Homo sapiens): 415 nM
Sequence: KIGDFGLATVK

Sequence: KMLMTGTLAV
Kd [21, 40]: 47.4 nM | Kd [22, 41]: 444 nM | Kd [23, 40]: 10 nM | Kd [24, 41]: 6.46 nM

Sequence: KMNAKAATL
Kd ([1]; source organism: Mycobacterium tuberculosis variant bovis BCG str. Pasteur 1173P2): 146 nM

Sequence: LLLQKYPPP
IC50 [3, 44]: 34100 nM | IC50 [5, 44]: ≥ 416000 nM

Sequence: LLTGGAMLFL
Kd [22, 43]: 347 nM | Kd [24, 43]: 47.4 nM

Sequence: LLVISGVFPV
Kd [21, 45]: 0.72 nM | Kd [22, 45]: 2.75 nM | Kd [23, 45]: 17 nM | Kd [24, 45]: 0.279 nM

Sequence: LMFKHLLHP
Kd [29]: 25.9 nM | Kd [30]: 11300 nM | Kd [31]: 1.04 nM | Kd [32]: 504 nM | Kd [33]: 103 nM

Kd [6, 46]: 88 nM | Kd [7, 46]: ≥ 20000 nM | Kd [8, 46]: ≥ 20000 nM | Kd [34]: ≥ 20000 nM | Kd [9, 46]: ≥ 20000 nM | Kd [10, 46]: ≥ 20000 nM | Kd [12, 46]: ≥ 20000 nM | Kd [13, 46]: ≥ 20000 nM | Kd [14, 46]: 189 nM | Kd [15, 46]: ≥ 20000 nM | Kd [16, 46]: ≥ 20000 nM | Kd [17, 46]: ≥ 20000 nM | Kd [18, 46]: ≥ 20000 nM | Kd [19, 46]: 28.3 nM | Kd [20, 46]: ≥ 20000 nM
Sequence: LPQTRWQAV

Sequence: LQISRVNDL
Kd [29]: 34.4 nM | Kd [21, 47]: 229 nM | Kd [35]: 89.8 nM | Kd [23, 47]: 11.5 nM

Sequence: LTIACRVSL
Kd [29]: 599 nM | Kd [30]: 95.8 nM | Kd [31]: 731 nM | Kd [32]: 475 nM | Kd [33]: 75.8 nM

Sequence: LVISGLFPV
Kd [21, 48]: 0.36 nM | Kd [22, 49]: 2.17 nM | Kd [27, 48]: 1.23 nM | Kd [23, 48]: 3.62 nM | Kd [24, 49]: 2.93 nM

Sequence: NMNNDSYYF
Kd [36]: 76.5 nM | Kd [37]: 11.3 nM

Sequence: NQVCIDILR
IC50 [4, 44]: ≥ 205000 nM

Sequence: QHTRRVSVL
Kd [6, 50]: 1300 nM | Kd [7, 50]: ≥ 10000 nM | Kd [8, 50]: ≥ 20000 nM | Kd [9, 50]: ≥ 20000 nM | Kd [10, 50]: 5180 nM | Kd [11, 50]: ≥ 20000 nM | Kd [13, 50]: 10100 nM | Kd [14, 50]: 534 nM | Kd [17, 50]: ≥ 20000 nM | Kd [18, 50]: ≥ 20000 nM | Kd [19, 50]: ≥ 20000 nM | Kd [20, 50]: ≥ 20000 nM

Sequence: RMFGSKPTF
Kd [29]: 0.206 nM | Kd [30]: 9800 nM | Kd [31]: 7870 nM | Kd [32]: 6250 nM | Kd [33]: 7510 nM

Sequence: SQTIELIAF
Kd [29]: 0.206 nM

Sequence: VKNEVNSFK
IC50 [4, 38]: 39100 nM | IC50 [5, 38]: 47100 nM

Sequence: VLLLTIGLSL
Kd [22, 41]: 3910 nM | Kd [24, 41]: 5.24 nM

Sequence: VMSQEDNHF
Kd [29]: 102 nM | Kd [33]: 192 nM

Kd [6, 46]: 6120 nM | Kd [7, 46]: ≥ 20000 nM | Kd [8, 46]: ≥ 20000 nM | Kd [34]: ≥ 20000 nM | Kd [10, 46]: ≥ 20000 nM | Kd [12, 46]: ≥ 20000 nM | Kd [13, 46]: ≥ 20000 nM | Kd [14, 46]: ≥ 20000 nM | Kd [15, 46]: ≥ 20000 nM | Kd [16, 46]: ≥ 20000 nM | Kd [17, 46]: ≥ 20000 nM | Kd [18, 46]: ≥ 20000 nM | Kd [19, 46]: 251 nM | Kd [20, 46]: 144 nM
Sequence: VVAVGGLAI

Sequence: YMSSEPIIF
Kd [29]: 0.304 nM
